US20110293610A1 (published 2011)

Legend:
TNF-beta = target: T1, TNF-beta (human, UniProt P01374 35-205); test: phage ELISA
T1 construct: also called TNFβ; Tumour Necrosis Factor-beta
T1 sequence (looked up): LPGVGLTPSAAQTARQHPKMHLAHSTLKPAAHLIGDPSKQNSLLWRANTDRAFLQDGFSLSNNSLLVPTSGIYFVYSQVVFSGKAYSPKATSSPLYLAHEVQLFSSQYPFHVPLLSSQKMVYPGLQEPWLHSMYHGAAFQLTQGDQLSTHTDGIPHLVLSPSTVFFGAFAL

TNF-alpha = target: T2, TNF-alpha (human, UniProt P01375 77-233); test: phage ELISA
T2 construct: also called TNFα; TNF-α

Fas ligand = target: T3, Fas ligand (human, UniProt P48023 134-281, limits assumed); test: phage ELISA
T3 sequence (looked up): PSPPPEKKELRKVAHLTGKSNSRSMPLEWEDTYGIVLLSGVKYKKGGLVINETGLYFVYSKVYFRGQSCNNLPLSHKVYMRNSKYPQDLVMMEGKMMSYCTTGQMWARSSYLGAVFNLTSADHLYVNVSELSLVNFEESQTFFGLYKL

TRAIL = target: T4, TRAIL (human, UniProt P50591 114-281); test: phage ELISA
T4 construct: also called TNF-related apoptosis inducing ligand

[1] = target: T5, membrane-bound B Lymphocyte Stimulator on U937 plasma membrane preparations (human, UniProt Q9Y275 1-285); test: phage ELISA
T5 construct: Natural protein in plasma membrane fractions of the human cell line U937 coated on ELISA plates; also called U937 plasma membranes; U937 membranes

[2] = target: T6, B Lymphocyte Stimulator, soluble form (human) (human, UniProt Q9Y275 134-285, biotinylated with NHS-biotin where used as biotinylated B Lymphocyte Stimulator); test: phage competition ELISA
T6 construct: Coated on plastic, captured on streptavidin plates, amine-coupled to a CM5 chip or free in solution, depending on the assay; also called BLyS; immobilized B Lymphocyte Stimulator

T2 sequence (P01375 77-233 limits assumed): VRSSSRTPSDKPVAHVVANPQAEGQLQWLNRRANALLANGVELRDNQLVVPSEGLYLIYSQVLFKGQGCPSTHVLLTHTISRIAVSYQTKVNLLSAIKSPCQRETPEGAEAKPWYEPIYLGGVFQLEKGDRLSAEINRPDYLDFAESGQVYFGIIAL
T4 sequence (P50591 114-281 limits assumed): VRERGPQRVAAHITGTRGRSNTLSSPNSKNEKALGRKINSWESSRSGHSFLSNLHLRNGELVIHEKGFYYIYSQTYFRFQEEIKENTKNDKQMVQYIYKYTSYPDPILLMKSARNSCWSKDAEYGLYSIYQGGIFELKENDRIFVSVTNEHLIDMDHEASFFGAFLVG

Row | Binder | binding result (TNF-beta) | binding result (TNF-alpha) | binding result (Fas ligand) | binding result (TRAIL) | binding result [1] | binding result [2]
1 | I031G10 (scFv) scFv: QVQLVQSGAEVKKPGSSVKVSCRVSGGSFTDDSINWLRQAPGQGLEWVGGTIPLANRANYAQKFRDRVTITADELTATVFLELTSLRSDDTALYYCARSSPPKWYDALTGDSSYHSAMDVWGRGTLVTVSSGGGGSGGGGSGGGGSAQSVVTQPPSVSAAPGQKVTISCSGSTSNIGRNYVSWYQQLPGTATKLLIYDNNKRPSGIPDRFSGSKSGTSATLGITGLQTGDEADYYCGTWDSSLRIYVFGTGTKVTVLG | no binding | no binding | no binding | no binding | binds | binds
2 | I031G08 (scFv) scFv: QVQLVQSGAEVKKPGSSVKVSCRASGGSFIDDSINWLRQAPGQGLEWVGGTIPLANRANYAQKFRDRATITADELTATVFLELTSLRSDDTALYYCARSSPPKWYDALTGHSSYHSAMDVWGRGTLVTVSSGGGGSGGGGSGGGGSAQSVLTQPPSASGTPGQRVTISCSGTNSNIGGNTVNWYQQLPGTAPRLLIYSNNQRPSGVPDRFSGSKSGTSASLAISGLQSEDEADYYCAARDDRLNAHVVFGGGTKVTVLG | no binding | no binding | no binding | no binding | binds | binds
3 | I031C07 (scFv) scFv: EVQLVQSGAEVKKPGSSVKVSCRASGGSFIDGSINWLRQAPGQGLEWVGGTIPLANRANYAQKFRDRVTITADELTAIVFLELTSLRSDDTALYYCARSSPPRWYDALTGDSSYHSAMDVWGQGTMVTVSSGGGGSGGGGSGGGGSAQSALTQPPSASGSPGQSVTISCSGTSSDIGDSNSVSWYQQHPGKAPKLLIYEVTKRPSGVPDRFAGSRSDNTASLTVSGLQTEDEADYYCSSSAARNHLVFGGGTKVTVLG | no binding | no binding | no binding | no binding | binds | binds
4 | I012A06 (scFv) scFv: QVQLQESGPGVVKPSQTLSLTCTVSGVSISSDSYYWSWIRQPAGKGPEWIGRIYPTGSTNYNPSLKSRVTISVDTSKNQFSLQLTSVTAADTAVYYCARGRWDYDLLTGEHLGYYFDYWGRGTLVTVSSGGGGSGGGGSGGGGSALSSELTQDPAVSVALGQTVRITCQGDTLRNYYASWYQQKPGQAPVLVIHSRNNRPSGIPDRFSGSSSGTTASLTITGSQAEDEADYYCNSRDSSGNVIFGGGTKLTVLG | no binding | no binding | no binding | no binding | binds | binds
5 | I028A06 (scFv) scFv: QVQLVESGGGLIQPGGSLRLSCAASGFSFGSYAMSWIRQAPGKGLEWVSTSTGRGGSTYYADSVKGRFTISRDNAKNSLYLQMNSLRAEDAAVYYCARGGDYDILTGLYYYGMDVWGKGTMVTVSSGGGGSGGGGSGGGGSSYVLTQPPSVSGTPGQRVTISCSGGRSNIGSNTVKWYQQLPGTAPKLLIYGNDQRPSGVPDRFSGSKSGTSASLAITGVQAEDEADYYCQSYDSSLRGSRVFGTGTKVTVLG | no binding | no binding | no binding | no binding | binds | binds
6 | I031C03 (scFv) scFv: QMQLVQSGAEVRKPGSSVKVSCKASGGSFSSHVFSWVRQAPGQGLEWVGGITPKFATPNYAQKFQHRVTITADELTRTVFMDLSGLRSEDTAVYYCARGYDSSAFRAFDIWGQGTLVTVSSGGGGSGGGGSGGGGSAQSVLTQPPSVSAAPGQKVTISCSGSSSNIGNNYVSWYQQFPGTAPKLLIYDNNNRPSGVPDRFSGSKSGTSATLGITGLQTGDEADYYCGTWDRSLSVVVFGGGTKVTVLG | no binding | no binding | no binding | no binding | binds | binds
7 | I031F02 (scFv) scFv: QVQLVQSGAEVRKPGSSVKVSCKASGGSFSSHVFSWVRQAPGQGLEWVGGITPKFATPNYAQKFQHRVTITADELTRTVFMDLSGLRSEDTAVYYCARGYDSSAFRAFDIWGQGTMVTVSSGGGGSGGGGSGGGGSAQSVLTQPPSVSGAPGQRVTISCTGSSSNIGAGYDVQWYQQLPGTAPKLLIHGNNNRPSGVPDRFSGSKSGTSASLAITGLQDEDEADYYCQSYDSSLSFSGYVFGTGTKVTVLG | no binding | no binding | no binding | no binding | binds | binds
8 | I031F09 (scFv) scFv: QVQLVQSGAEVKKPGASVKVSCTVSGDSFSRHGISWVRQAPGQGLEWMGWISVYNGDTKYAQKVQGRVTMTTDTSTNTVYMELRRLRSDDTAVYYCARDEGRDLLTGYYWPNFFDSWGRGTLVTVSSGGGGSGGGGSGGGGSALSYVLTQPPSASGTPGQRVTISCSGSRPNIGGNTVNWYQQLPGAAPKLLIYSNSQRPSGVPDRFSGSKYGTSASLAISGLQSDDEADYYCAAWDDSLTGPVFGGGTKLTVLG | no binding | no binding | no binding | no binding | binds | binds
9 | I031G11 (scFv) scFv: QVQLVQSGAEVKKPGASVKVSCTVSGDSFSRHGISWVRQAPGQGLEWMGWISVYNGDTKYAQKVQGRVTMTTDTSTNTVYMELRRLRSDDTAVYYCARDEGRDLLTGYYWPNFFDSWGRGTLVTVSSGGGGSGGGGSGGGGSALSYVLTQPPSVSGTPGQKVTISCSGSRPNIGGNTVNWYQQLPGAAPKLLIYSNSQRPSGVPDRFSGSKYGTSASLAISGLQSDDEADYYCAAWDDSLTGPVFGGGTKLTVLG | no binding | no binding | no binding | no binding | binds | binds
10 | I050A12 (scFv) scFv: EVQLVQSGAEVKKPGSSVKVSCKASGDTFSHYAINWVRQAPGQGLEWMGGIIPTFNAVKYAQKFQGRATITADGSTSTAYMELNSLRSEDTAVYYCATAPYDLLTHYFHYFDYWGQGTMVTVSSGGGGSGGGGSGGGGSALSSELTQDPAVSVTLGQTVRITCQGDSLRSYYPSWYQQKPGQAPVLVIYPKNIRPSGIPDRFSGSSSGNTASLTITGAQAEDEADYYCNSRASSGNHYVFATGTKLTVLG | no binding | no binding | no binding | no binding | binds | binds
